In US11891427B2, “Amidated peptides and their deamidated counterparts displayed by non-HLA-a*02 for use in immunotherapy against different types of cancers” (Immatics Biotechnologies GmbH, priority 2020, dated 2024):

molecular target: HLA-A*01:01 (Homo sapiens, UniProt P04439, A114D/A174V/A182V/D101N/D185E/E176A/E190D/L180R/Q94H/R68K/S129P/T187R/V100A/V91M/W191G); test: MHC binding assay (UV-ligand exchange, beta2m ELISA); details: binding to HLA-A*01:01, ranged by peptide exchange yield
Excerpt: (§1) Candidate peptides for T cell based therapies according to the present invention were further tested for their MHC binding capacity (affinity). The individual peptide-MHC complexes were produced by UV-ligand exchange, where a UV-sensitive peptide is cleaved upon UV-irradiation and exchanged with the peptide of interest as analyzed. Only peptide candidates that can effectively bind and stabilize the peptide-receptive MHC molecules prevent dissociation of the MHC complexes. To determine the yield of the exchange reaction, an ELISA was performed based on the detection of the light chain (β2m) of stabilized MHC complexes. The assay was performed as generally described in Rodenko et al. (Rodenko et al., 2006).
(§2) 96 well MAXISorp plates (NUNC) were coated over night with 2 μg/ml streptavidin in PBS at room temperature, washed 4× and blocked for 1 h at 37° C. in 2% BSA containing blocking buffer. Refolded HLA-A*02:01/MLA-001 monomers served as standards, covering the range of 15-500 ng/ml. Peptide-MHC monomers of the UV-exchange reaction were diluted 100-fold in blocking buffer. Samples were incubated for 1 h at 37° C., washed four times, incubated with 2 μg/ml HRP conjugated anti-β2m for 1 h at 37° C., washed again and detected with TMB solution that is stopped with […]. Absorption was measured at 450 nm. Candidate peptides that show a high exchange yield (preferably higher than 50%, most preferred higher than 75%) are generally preferred for a generation and production of antibodies or fragments thereof, and/or T cell receptors or fragments thereof, as they show sufficient avidity to the MHC molecules and prevent dissociation of the MHC complexes.

| Substance | Peptide exchange |
| --- | --- |
| 93 (HADLTTLTF) [compound 93] | ++ (≥20% = ++) |
| 50 (RSIDVTGQGF) [compound 50] | ++ (≥20% = ++) |
| 91 (GVDDTSLLY) [compound 91] | ++++ (≥75% = ++++) |
| 6 (ISDITEKNSGLY) [compound 6] | ++++ (≥75% = ++++) |
| 7 (VTRDDTASY) [compound 7] | ++ (≥20% = ++) |
| 94 (YSIDVTNVM) [compound 94] | +++ (≥50% = +++) |
| 83 (TFVDASRTLY) [compound 83] | ++++ (≥75% = ++++) |
| 37 (RSLDCTVKTY) [compound 37] | +++ (≥50% = +++) |
| 4 (YIDDVTLI) [compound 4] | ++ (≥20% = ++) |
| 87 (ITDDTVQTY) [compound 87] | ++++ (≥75% = ++++) |
| 59 (ILFSDSTRLSF) [compound 59] | +++ (≥50% = +++) |
| 19 (MTDVDRDGTTAY) [compound 19] | ++++ (≥75% = ++++) |
| 52 (LTEVEKDATALY) [compound 52] | ++++ (≥75% = ++++) |
| 12 (ITDTSLNLF) [compound 12] | ++++ (≥75% = ++++) |
| 33 (ISDGMDSSAHY) [compound 33] | ++++ (≥75% = ++++) |
| 10 (QVDGSLLVI) [compound 10] | ++ (≥20% = ++) |
| 11 (NHITDTSLNLF) [compound 11] | ++ (≥20% = ++) |
| 89 (HVSDVTVNY) [compound 89] | ++ (≥20% = ++) |
| 82 (VTDVTEEHY) [compound 82] | ++++ (≥75% = ++++) |

| Substance | Peptide exchange |
| --- | --- |
| 90 (HVDNSNLNY) [compound 90] | ++++ (≥75% = ++++) |
| 84 (EVEGVIDGTYDY) [compound 84] | ++++ (≥75% = ++++) |
| 88 (WLDRSTILY) [compound 88] | ++++ (≥75% = ++++) |
| 18 (GTDKQDSTLRY) [compound 18] | ++++ (≥75% = ++++) |
| 49 (PSDGSMHNY) [compound 49] | ++++ (≥75% = ++++) |
| 16 (VTQDDTGFY) [compound 16] | ++++ (≥75% = ++++) |
| 34 (LSDLSLADI) [compound 34] | ++ (≥20% = ++) |
| 13 (TANYDTSHY) [compound 13] | ++ (≥20% = ++) |
| 92 (GQYDDSLQAY) [compound 92] | ++ (≥20% = ++) |
| 85 (EVQDHSTSSY) [compound 85] | ++ (≥20% = ++) |
| 60 (HVKDATMGY) [compound 60] | +++ (≥50% = +++) |
| 81 (VTETMGIDGSAY) [compound 81] | ++++ (≥75% = ++++) |
| 80 (LTNDQTLRL) [compound 80] | +++ (≥50% = +++) |
| 86 (ILPDITTTY) [compound 86] | ++ (≥20% = ++) |
| 58 (GTDQTGKGLEY) [compound 58] | +++ (≥50% = +++) |
| 79 (FTDTSSYEY) [compound 79] | ++++ (≥75% = ++++) |
| 25 (FTDLITDESINY) [compound 25] | ++++ (≥75% = ++++) |
| 51 (RVDDITDQF) [compound 51] | ++ (≥20% = ++) |
| 20 (TSDTSQYDTY) [compound 20] | +++ (≥50% = +++) |

molecular target: HLA-A*03:01 (Homo sapiens, UniProt P04439); test: as above; details: binding to HLA-A*03:01 ranged by peptide exchange yield
Excerpt: as §1, §2

| Substance | Peptide exchange |
| --- | --- |
| 29 (RLWDFTMNAK) [compound 29] | +++ (≥50% = +++) |

molecular target: HLA-A*24:02 (Homo sapiens, UniProt P04439, D101N/D140Y/D185E/E176V/E190D/F33S/G103R/G107R/I119L/I121M/I306V/K335N/L105A/L180Q/L300P/N151K/N90K/Q86E/Q94H/R106L/R138H/R89G/T104I/T345S/V100E/W191G/Y123F); test: as above; details: binding to HLA-A*24:02, ranged by peptide exchange yield
Excerpt: as §1, §2

| Substance | Peptide exchange |
| --- | --- |
| 38 (KLTDNSNQF) [compound 38] | ++ (≥20% = ++) |
| 96 (IFVPTDRSL) [compound 96] | ++ (≥20% = ++) |
| 99 (VYVDTTELAL) [compound 99] | ++++ (≥75% = ++++) |
| 5 (GYIDDVTLI) [compound 5] | +++ (≥50% = +++) |
| 97 (RYVNDYTNSF) [compound 97] | ++++ (≥75% = ++++) |
| 36 (YWDETLKEF) [compound 36] | +++ (≥50% = +++) |
| 98 (AFDKTIVKL) [compound 98] | ++ (≥20% = ++) |
| 45 (YFVDVTTRI) [compound 45] | +++ (≥50% = +++) |
| 55 (VYTDISHHF) [compound 55] | ++++ (≥75% = ++++) |
| 66 (YHDQTISF) [compound 66] | + (≥10% = +) |
| 103 (RQDESYLNF) [compound 103] | ++ (≥20% = ++) |
| 100 (EYQDFSTLF) [compound 100] | ++++ (≥75% = ++++) |
| 102 (IYPDGTLLI) [compound 102] | ++++ (≥75% = ++++) |
| 2 (FFQDSTFSF) [compound 2] | ++++ (≥75% = ++++) |
| 95 (VYIDDSVEL) [compound 95] | ++++ (≥75% = ++++) |
| 65 (IYQFARLDY) [compound 65] | ++ (≥20% = ++) |

| Substance | Peptide exchange |
| --- | --- |
| 43 (FFTDKTLSF) [compound 43] | ++++ (≥75% = ++++) |
| 104 (HLFYDVTVF) [compound 104] | ++ (≥20% = ++) |
| 67 (QAIDLSLNF) [compound 67] | ++ (≥20% = ++) |
| 68 (VFDETKNLL) [compound 68] | ++ (≥20% = ++) |
| 24 (FYDNSVIIF) [compound 24] | ++ (≥20% = ++) |
| 57 (FYDLSIQSF) [compound 57] | ++++ (≥75% = ++++) |
| 64 (FHYDDTAGYF) [compound 64] | + (≥10% = +) |
| 101 (VYLDASKVPGF) [compound 101] | ++++ (≥75% = ++++) |
| 9 (IFDETGRF) [compound 9] | ++ (≥20% = ++) |
| 23 (SYDETKIKF) [compound 23] | + (≥10% = +) |
| 69 (KSYHDQTISF) [compound 69] | ++++ (≥75% = ++++) |
| 26 (IYPDASLLIQNI) [compound 26] | ++++ (≥75% = ++++) |
| 76 (TYLPTDASLSF) [compound 76] | ++++ (≥75% = ++++) |
| 1 (VHDFTLPSW) [compound 1] | ++ (≥20% = ++) |
| 54 (QYQDTTVSF) [compound 54] | +++ (≥50% = +++) |

molecular target: HLA-B*07:02 (Homo sapiens, UniProt P01889); test: as above; details: binding to HLA-B*07:02 ranged by peptide exchange yield
Excerpt: as §1, §2

| Substance | Peptide exchange |
| --- | --- |
| 105 (NPADISVAL) [compound 105] | ++++ (≥75% = ++++) |
| 48 (FPYYLKIDY) [compound 48] | +++ (≥50% = +++) |
| 62 (HPDLTSMTF) [compound 62] | ++++ (≥75% = ++++) |
| 70 (HPFGYDLTL) [compound 70] | ++++ (≥75% = ++++) |
| 21 (APFKDVTEY) [compound 21] | +++ (≥50% = +++) |
| 106 (SPKIFDSSW) [compound 106] | +++ (≥50% = +++) |
| 39 (LPFFTDKTLSF) [compound 39] | ++++ (≥75% = ++++) |
| 71 (VPRNQDESV) [compound 71] | ++++ (≥75% = ++++) |
| 107 (GEPTSDITLL) [compound 107] | +++ (≥50% = +++) |

molecular target: HLA-B*44:05 (Homo sapiens, UniProt P01889, A223V/A65T/A93T/A95T/D201E/D98Y/E176V/E187L/E204Q/E69K/G107R/H137Y/K202T/L105A/L119I/N104T/N87E/Q56L/Q94N/R106L/R155S/R180D/S101N/S121R/S35A/S48T/T118I/V36M/W191S/Y91S); test: as above; details: binding to HLA-B*44:05, ranged by peptide exchange yield
Excerpt: as §1, §2

| Substance | Peptide exchange |
| --- | --- |
| 113 (TDFTKIASF) [compound 113] | ++++ (≥75% = ++++) |
| 73 (DESKYTWSW) [compound 73] | ++++ (≥75% = ++++) |
| 77 (KPREEQYDSTY) [compound 77] | ++++ (≥75% = ++++) |
| 110 (AESLAVHDI) [compound 110] | +++ (≥50% = +++) |
| 111 (GEYRCQTDL) [compound 111] | ++++ (≥75% = ++++) |
| 78 (DETIWYVRF) [compound 78] | ++++ (≥75% = ++++) |
| 44 (KENQDHSYSL) [compound 44] | ++++ (≥75% = ++++) |
| 112 (AEFFDYTVRTL) [compound 112] | ++++ (≥75% = ++++) |
| 75 (QEVDISLHY) [compound 75] | ++++ (≥75% = ++++) |
| 46 (KEVDDTLLVNEL) [compound 46] | ++++ (≥75% = ++++) |
| 109 (DETAAYKIM) [compound 109] | +++ (≥50% = +++) |
| 15 (TEGDFTKEASTY) [compound 15] | +++ (≥50% = +++) |
| 74 (LENMYDLTF) [compound 74] | ++++ (≥75% = ++++) |
| 108 (DETHTLQF) [compound 108] | ++++ (≥75% = ++++) |
